Results as given in patent US20160130315A1 (AJOU UNIVERSITY INDUSTRY ACADEMIC COOPERATION FOUNDATION, published 2016).
Where two headings read alike, the source gives them in different places. One block for each binder: values may come before it.

B1: b1b2 domains (273-586) of neuropilin-1 (receptor, UniProt O14786 273-586, looked up)
chain: FKCMEALGMESGEIHSDQITASSQYSTNWSAERSRLNYPENGWTPGEDSYREWIQVDLGLLRFVTAVGTQGAISKETKKKYYVKTYKIDVSSNGEDWITIKEGNKPVLFQGNTNPTDVVVAVFPKPLITRFVRIKPATWETGISMRFEVYGCKITDYPCSGMLGMVSGLISDSQITSSNQGDRNWMPENIRLVTSRSGWALPPAPHSYINEWLQIDLGEEKIVRGIIIQGGKHRENKVFMRKFKIGYSNNGSDWKMIMDDSKRKAKSFEGNNNYDTPELRTFPALSTRFIRIYPERATHGGLGLRMELLGCEVE
notes: range 273-586; Purified soluble domain; No tag described; also called NRP1-b1b2; NRP-1 b1b2
B3: b1b2 domains (275-595) of neuropilin-2 (receptor, UniProt O60462 275-595, looked up)
chain: FQCNVPLGMESGRIANEQISASSTYSDGRWTPQQSRLHGDDNGWTPNLDSNKEYLQVDLRFLTMLTAIATQGAISRETQNGYYVKSYKLEVSTNGEDWMVYRHGKNHKVFQANNDATEVVLNKLHAPLLTRFVRIRPQTWHSGIALRLELFGCRVTDAPCSNMLGMLSGLIADSQISASSTQEYLWSPSAARLVSSRSGWFPRIPQAQPGEEWLQVDLGTPKTVKGVIIQGARGGDSITAVEARAFVRKFKVSYSLNGKDWEYIQDPRTQQPKLFEGNMHYDTPDIRRFDPIPAQYVRVYPERWSPAGIGMRLEVLGCDWT
notes: range 275-595; Purified soluble domain; also called NRP2-b1b2; NRP-2 b1b2
B4: Sema3A (26-760) (ligand, UniProt Q14563 26-760, looked up)
chain: KNNVPRLKLSYKEMLESNNVITFNGLANSSSYHTFLLDEERSRLYVGAKDHIFSFDLVNIKDFQKIVWPVSYTRRDECKWAGKDILKECANFIKVLKAYNQTHLYACGTGAFHPICTYIEIGHHPEDNIFKLENSHFENGRGKSPYDPKLLTASLLIDGELYSGTAADFMGRDFAIFRTLGHHHPIRTEQHDSRWLNDPKFISAHLISESDNPEDDKVYFFFRENAIDGEHSGKATHARIGQICKNDFGGHRSLVNKWTTFLKARLICSVPGPNGIDTHFDELQDVFLMNFKDPKNPVVYGVFTTSSNIFKGSAVCMYSMSDVRRVFLGPYAHRDGPNYQWVPYQGRVPYPRPGTCPSKTFGGFDSTKDLPDDVITFARSHPAMYNPVFPMNNRPIVIKTDVNYQFTQIVVDRVDAEDGQYDVMFIGTDVGTVLKVVSIPKETWYDLEEVLLEEMTVFREPTAISAMELSTKQQQLYIGSTAGVAQLPLHRCDIYGKACAECCLARDPYCAWDGSACSRYFPTAKRRTRRQDIRNGDPLTHCSDLHHDNHHGHSPEERIIYGVENSSTFLECSPKSQRALVYWQFQRRNEERKEEIRVDDHIIRTDQGLLLRSLQQKDSGNYLCHAVEHGFIQTLLKVTLEVIDTEHLEELLHKDDDGDGSKTKEMSNSMTPSQKVWYRDFMQLINHPNLNTMDEFCEQVWKRDRKQRRQRPGHTPGNSNKWKHLQENKKGRNRR
notes: range 26-760; Control ligand; Biotinylated in the ELISA; also called Semaphorin3A; Semaphorin 3A

Tests used:
Sema3F (19-779) = biological target: T1, Sema3F (19-779) (UniProt Q13275 19-779); assay: SPR Biacore 2000, NRP b1b2 on CM5 chip
T1 construct: range 19-779; Control ligand; Biotinylated in the ELISA; also called Semaphorin 3F
T1 sequence (looked up): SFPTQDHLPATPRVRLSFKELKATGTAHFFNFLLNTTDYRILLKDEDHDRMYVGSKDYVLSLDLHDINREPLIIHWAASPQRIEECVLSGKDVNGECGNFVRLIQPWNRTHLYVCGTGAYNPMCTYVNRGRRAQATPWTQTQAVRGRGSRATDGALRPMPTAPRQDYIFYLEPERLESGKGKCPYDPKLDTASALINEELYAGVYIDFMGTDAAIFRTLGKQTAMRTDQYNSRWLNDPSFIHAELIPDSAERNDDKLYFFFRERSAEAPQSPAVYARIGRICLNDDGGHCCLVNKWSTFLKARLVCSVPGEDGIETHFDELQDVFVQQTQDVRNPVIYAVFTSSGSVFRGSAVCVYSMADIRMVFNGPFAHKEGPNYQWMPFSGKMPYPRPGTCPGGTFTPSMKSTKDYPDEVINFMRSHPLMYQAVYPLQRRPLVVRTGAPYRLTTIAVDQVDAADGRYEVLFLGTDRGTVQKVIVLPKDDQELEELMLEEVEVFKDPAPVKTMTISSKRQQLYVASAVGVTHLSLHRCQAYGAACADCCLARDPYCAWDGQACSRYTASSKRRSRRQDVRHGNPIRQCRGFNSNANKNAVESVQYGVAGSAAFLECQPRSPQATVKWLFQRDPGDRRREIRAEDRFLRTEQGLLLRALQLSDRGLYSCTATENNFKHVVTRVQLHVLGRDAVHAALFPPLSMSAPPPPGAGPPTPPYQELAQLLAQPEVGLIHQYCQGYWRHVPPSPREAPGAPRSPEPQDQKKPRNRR
Protocol: (§1) Specifically, each b1b2 domain of neuropilin-1 and -2 was diluted with 10 mM Na-acetate buffer (pH 4.0), and fixed onto CM5 sensor chips (GE healthcare, USA) in about 1000 response units (RU). […] After bond and dissociation analysis, the regeneration of CM5 chip was performed by streaming a buffer (20 Mm NaOH, 1 M NaCl, pH 10.0) at a stream velocity 30 μl/min for 1 minute.

Sema3A (26-760) = biological target: B4; assay: SPR Biacore 2000, NRP b1b2 on CM5 chip
[1] = biological target: B1; assay: competition ELISA on plate-bound NRP1-b1b2: VEGF165 titrated against Fc-15F22P (30 nM), absorbance at 405 nm [right panel Fc-15F22P]
Protocol: (§2) Specifically, b1b2 domains (273-586) of neuropilin-1 and b1b2 domains (275-595) of neuropilin-2 were bound in 96-well EIA/RIA plates (COSTAR Corning In., USA) at room temperature for 1 hour, and then washed three times for 10 minutes with 0.1% PBST (0.1% Tween20, pH 7.4, 137 mM NaCl, 10 mM Phosphate, 2.7 mM KCl, SIGMA-ALDRICH co., USA). After binding for 1 hour with 5% skim milk (pH 7.4, 137 mM NaCl, 10 mM Phosphate, 2.7 mM KCl, SIGMA-ALDRICH co., USA), it was washed three times for 10 minutes with 0.1% PBST (0.1% Tween20, pH 7.4, 137 mM NaCl, 10 mM Phosphate, 2.7 mM KCl, SIGMA-ALDRICH co., USA).

[2] = biological target: B1; assay: SPR Biacore 2000, NRP b1b2 on CM5 chip
Protocol: as §1

[3] = biological target: B3; assay: SPR Biacore 2000, NRP b1b2 on CM5 chip
Protocol: as §1

[4] = biological target: B1; assay: competition ELISA on plate-bound NRP1-b1b2: VEGF165 titrated against Fc-15A22P (30 nM), absorbance at 405 nm [left panel Fc-15A22P]
Protocol: as §2

[5] = biological target: B1; assay: SPR Biacore 2000, NRP b1b2 on CM5 chip; remark: listed apart in the source
Protocol: as §1

[6] = biological target: B3; assay: SPR Biacore 2000, NRP b1b2 on CM5 chip; remark: listed apart in the source
Protocol: as §1

[7] = biological target: B1; assay: competition ELISA on plate-bound NRP1-b1b2: Sema3A titrated against Fc-15F22P (30 nM), absorbance at 405 nm [right panel Fc-15F22P]
Protocol: as §2

[8] = biological target: B1; assay: competition ELISA on plate-bound NRP1-b1b2: Sema3A titrated against Fc-15A22P (30 nM), absorbance at 405 nm [left panel Fc-15A22P]
Protocol: as §2

Binder: B1
Kd (Sema3F (19-779)): 245 nM | koff (Sema3F (19-779)): 0.000973 s⁻¹ | kon (Sema3F (19-779)): 3980 M⁻¹ s⁻¹ | Kd (Sema3A (26-760)): 27.9 nM | koff (Sema3A (26-760)): 0.000808 s⁻¹ | kon (Sema3A (26-760)): 28900 M⁻¹ s⁻¹

IC50 (read off the curve) [1]: ~2 nM | Kd [2]: 3.51 nM | koff [2]: 0.00342 s⁻¹ | kon [2]: 975000 M⁻¹ s⁻¹ | Kd [3]: 32 nM | koff [3]: 0.00373 s⁻¹ | kon [3]: 117000 M⁻¹ s⁻¹ | IC50 (read off the curve) [4]: ~3 nM | Kd [5]: 3.51 nM | koff [5]: 0.00342 s⁻¹ | kon [5]: 975000 M⁻¹ s⁻¹ | Kd [6]: 32 nM | koff [6]: 0.00373 s⁻¹ | kon [6]: 117000 M⁻¹ s⁻¹
B2: VEGF165A (ligand, UniProt P15692-4 27-191, looked up)
chain: APMAEGGGQNHHEVVKFMDVYQRSYCHPIETLVDIFQEYPDEIEYIFKPSCVPLMRCGGCCNDEGLECVPTEESNITMQIMRIKPHQGQHIGEMSFLQHNKCECRPKKDRARQENPCGPCSERRKHLFVQDPQTCKCSCKNTDSRCKARQLELNERTCRCDKPRR
notes: Control ligand; biotinylated in the ELISA; also called vascular endothelial cell growth factor-A

Binder: B3
Kd (Sema3F (19-779)): 345 nM | koff (Sema3F (19-779)): 0.0015 s⁻¹ | kon (Sema3F (19-779)): 4340 M⁻¹ s⁻¹ | Kd (Sema3A (26-760)): 231 nM | koff (Sema3A (26-760)): 0.00161 s⁻¹ | kon (Sema3A (26-760)): 6960 M⁻¹ s⁻¹

Binder: B4
IC50 (read off the curve) [7]: ~20 nM | IC50 (read off the curve) [8]: ~20 nM
